Results published in publication PMC6703867 (Science Advances, 2019).

Biological target: T1, MBP-AtWRKY20 fusion protein (Arabidopsis thaliana, UniProt Q93WV0 1-557)
T1 sequence (looked up): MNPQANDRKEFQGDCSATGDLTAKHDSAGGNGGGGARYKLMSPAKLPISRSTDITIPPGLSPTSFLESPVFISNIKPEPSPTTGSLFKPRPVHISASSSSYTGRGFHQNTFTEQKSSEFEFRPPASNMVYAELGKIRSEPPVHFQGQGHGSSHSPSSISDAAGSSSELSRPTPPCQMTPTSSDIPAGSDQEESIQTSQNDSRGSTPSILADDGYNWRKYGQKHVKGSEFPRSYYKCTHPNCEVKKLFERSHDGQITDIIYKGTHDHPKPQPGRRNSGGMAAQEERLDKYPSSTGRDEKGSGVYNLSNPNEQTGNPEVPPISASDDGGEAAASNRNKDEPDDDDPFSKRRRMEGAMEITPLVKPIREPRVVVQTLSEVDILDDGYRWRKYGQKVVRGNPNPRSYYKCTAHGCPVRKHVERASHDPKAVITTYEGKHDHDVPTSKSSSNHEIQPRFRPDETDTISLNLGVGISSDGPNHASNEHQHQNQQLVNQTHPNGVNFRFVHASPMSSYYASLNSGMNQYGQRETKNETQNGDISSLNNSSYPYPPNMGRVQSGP
Assay: pull-down

B1: GST-AtORA59 (natural protein)
chain: not shown
binding result: binds
